We go through eight substances from article PMC8887544.

The target in one test is Cas8f:Cas5f heterodimer (Xanthomonas albilineans, type I-F Cascade subunit) (Xanthomonas albilineans). Description: ITC; 25°C; AcrIE4-F7 (250 μM) injected into Cas8f:Cas5f (35 μM) in the cell; 20 mM Tris-HCl pH 7.5, 150 mM NaCl, 1 mM TCEP.
In general, Kd refers to the free concentration of one partner at which half of the binding sites on the other are occupied at equilibrium, for simple one-to-one binding. Lower therefore signals a tighter complex. With AcrIE4-F7 (natural protein), the equilibrium dissociation constant (Kd) is 26 nM.

“AcrIE4-F7^CTD (C-terminal domain of AcrIE4-F7, residues 53-119) (domain or fragment)” showed a Kd of 13 nM.

A further test addresses (His)6-MBP-tagged Cas8e (P. aeruginosa, type I-E) (P. aeruginosa (PRD-10 genomic DNA)). Description: ITC; 25°C; 20 μM of either AcrIE4-F7 or (His)6-MBP tagged Cas8e in the cell, titrated with 150-200 μM of the partner, both directions; 20 mM HEPES pH 7.0, 150 mM NaCl, 1 mM TCEP, 5% glycerol; triplicate. On the technique in general: ITC needs no label: the signal is the heat of the interaction.
One may read the stoichiometry N as the number of molecules, sites or subunits per partner or assembly. For the substance AcrIE4-F7 (natural protein), the Kd came out at 200 nM, the dH was -14.7 kcal/mol and the stoichiometry N was 1.

In turn, AcrIE4-F7(D30K/E31K) (natural protein) had a Kd of 4800 nM, a dH of -11.1 kcal/mol and a stoichiometry N of 0.8.

Consider AcrIE4-F7(E12K/D13K) (natural protein), for which the equilibrium dissociation constant (Kd) came to 400 nM, the dH was -22.8 kcal/mol and the stoichiometry N was determined as 0.8.

In the case of AcrIE4-F7(E38K/D39K) (natural protein), the Kd was 190 nM, the dH is -12.8 kcal/mol and the stoichiometry N was 0.9.

Regarding AcrIE4-F7(E46K) (natural protein), the Kd was found to be 430 nM, the dH was -11.7 kcal/mol and the stoichiometry N came out at 1.

The substance AcrIE4-F7(Y20A) (natural protein) yielded a Kd of 3500 nM, a dH of -5.6 kcal/mol and a stoichiometry N of 1.1.

Consider “AcrIE4-F7^NTD (N-terminal domain of AcrIE4-F7, residues 1-52) (domain or fragment)”, for which the dissociation constant Kd amounted to 140 nM, the dH is -18.1 kcal/mol and the stoichiometry N was determined as 0.8.
